# pKd: −log10 of the molar value.
# Key:
# [1] = biological target: SBC, trimeric complex of SOCS2, Elongin B and Elongin C (wild type) (UniProt O14508); test: ITC; Cul5NTD titrated into VBC or SBC proteins (Figure 7D: 200 μM into 20 μM, 303 K); 100 mM Bis tris propane pH 8.0, 50 mM NaCl, 2 mM TCEP; one-set-of-sites model
# [2] = biological target: S^KSDBC, SBC with the SOCS2 triple mutation Q164K, R186S, Y190D (UniProt O14508); test: as above
# [3] = biological target: V^QRYBC, VBC with the pVHL triple mutation K159Q, S183R, D187Y (human) (UniProt P40337); test: as above
# [4] = biological target: Rbx1-Cul2, dimeric complex of full-length Rbx1 and full-length Cullin-2 (wild type) (human) (UniProt Q13617); test: ITC; VBC or SBC proteins (200 μM) titrated into Rbx1-Cul2 (20 μM), 303 K; 100 mM Bis tris propane pH 8.0, 50 mM NaCl, 2 mM TCEP; one-set-of-sites model
# Chain of Rbx1-Cul2, dimeric complex of full-length Rbx1 and full-length Cullin-2 (wild type) (human) (Q13617 whole entry, chain 1 of 2): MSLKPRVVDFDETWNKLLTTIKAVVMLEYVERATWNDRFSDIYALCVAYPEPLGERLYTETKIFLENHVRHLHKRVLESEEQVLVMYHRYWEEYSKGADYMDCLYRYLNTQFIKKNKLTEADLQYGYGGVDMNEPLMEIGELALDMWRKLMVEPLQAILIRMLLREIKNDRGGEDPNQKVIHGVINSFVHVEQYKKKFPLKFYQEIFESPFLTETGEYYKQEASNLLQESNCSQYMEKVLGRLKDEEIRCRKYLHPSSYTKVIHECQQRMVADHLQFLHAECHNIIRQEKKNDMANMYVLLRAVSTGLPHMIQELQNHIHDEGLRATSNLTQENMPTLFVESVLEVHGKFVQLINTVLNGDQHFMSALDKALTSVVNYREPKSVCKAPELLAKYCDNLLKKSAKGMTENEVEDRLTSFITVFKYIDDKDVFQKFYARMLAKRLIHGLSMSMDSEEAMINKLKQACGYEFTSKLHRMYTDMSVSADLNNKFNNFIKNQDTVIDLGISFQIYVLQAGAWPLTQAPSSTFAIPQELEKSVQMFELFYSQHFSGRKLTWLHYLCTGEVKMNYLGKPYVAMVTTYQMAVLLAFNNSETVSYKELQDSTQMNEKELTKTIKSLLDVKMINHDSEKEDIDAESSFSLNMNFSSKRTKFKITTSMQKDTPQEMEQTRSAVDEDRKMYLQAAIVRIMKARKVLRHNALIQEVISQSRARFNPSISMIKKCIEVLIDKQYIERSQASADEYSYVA
# Chain of Rbx1-Cul2, dimeric complex of full-length Rbx1 and full-length Cullin-2 (wild type) (human) (P62877 whole entry, chain 2 of 2, further chain): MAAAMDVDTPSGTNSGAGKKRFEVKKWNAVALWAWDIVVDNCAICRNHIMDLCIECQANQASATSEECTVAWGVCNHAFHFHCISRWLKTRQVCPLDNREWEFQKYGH
# Chain of Cul5NTD, N-terminal domain of Cullin-5 (residues 1-386) (Q93034 1-386): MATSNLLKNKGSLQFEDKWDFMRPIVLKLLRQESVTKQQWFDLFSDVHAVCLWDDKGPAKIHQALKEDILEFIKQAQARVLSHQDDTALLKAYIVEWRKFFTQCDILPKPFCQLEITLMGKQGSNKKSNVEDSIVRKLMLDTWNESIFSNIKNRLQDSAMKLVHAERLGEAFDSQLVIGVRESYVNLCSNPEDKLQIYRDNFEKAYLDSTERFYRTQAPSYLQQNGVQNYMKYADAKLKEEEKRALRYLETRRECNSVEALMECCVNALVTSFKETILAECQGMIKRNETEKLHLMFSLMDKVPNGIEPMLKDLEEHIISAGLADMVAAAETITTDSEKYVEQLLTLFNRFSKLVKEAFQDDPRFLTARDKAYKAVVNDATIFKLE
pKd [1],pKd [2],pKd [3],pKd [4],Substance
8.00,6.60,5.54,–,"Cul5NTD, N-terminal domain of Cullin-5 (residues 1-386) (from UniProt Q93034 1-386) (domain or fragment)"
–,–,–,5.60,"S^KSDBC, SBC with the SOCS2 triple mutation Q164K, R186S, Y190D (from UniProt O14508 32-198; Q15370 1-104; Q15369 17-112) (complex; other documents disagree on this pair)"
